In patent US20240269194A1 (CITY OF HOPE, published 2024) one finds Kd data, which are given here for one molecule.

As a reminder, the Kd is the concentration at which binding is half-saturated. A lower Kd goes with tighter binding.

The assay addresses [^68Ga]-DO3A-VS-Cys40-labeled Exendin-4 (UniProt P26349 48-86). Put plainly: saturation binding of the radiolabeled probe on INS-1 cells.

B1: GLP-1R expressed by INS-1 cells (receptor)
chain: GPRPQGATVSLSETVQKWREYRHQCQRFLTEAPLLATGLFCNRTFDDYACWPDGPPGSFVNVSCPWYLPWASSVLQGHVYRFCTAEGIWLHKDNSSLPWRDLSECEESKQGERNSPEEQLLSLYIIYTVGYALSFSALVIASAILVSFRHLHCTRNYIHLNLFASFILRALSVFIKDAALKWMYSTAAQQHQWDGLLSYQDSLGCRLVFLLMQYCVAANYYWLLVEGVYLYTLLAFSVFSEQRIFKLYLSIGWGVPLLFVIPWGIVKYLYEDEGCWTRNSNMNYWLIIRLPILFAIGVNFLVFIRVICIVIAKLKANLMCKTDIKCRLAKSTLTLIPLLGTHEVIFAFVMDEHARGTLRFVKLFTELSFTSFQGFMVAVLYCFVNNEVQMEFRKSWERWRLERLNIQRDSSMKPLKCPTSSVSSGATVGSSVYAATCQNSCS
notes: whole, on cells; Endogenous receptor on INS-1 cells and INS-1 tumors in mice; also called GLP-R1
In the case of B1, binding was put at a Kd of 8.6 nM.
